Laboratory results taken from patent US20170157250A1.

Assays:
[1] = biological target: human AXL (full length, on cells) (human (Homo sapiens)) (UniProt P30530); test: flow cytometry, A431 cells, without Gas6; mean (s.d.)
[2] = biological target: human AXL (full length, on cells) (human (Homo sapiens)) (UniProt P30530); test: flow cytometry, A431 cells pre-incubated with 10 µg/mL Gas6 (competitor)
[3] = biological target: human AXL (full length, on cells) (human (Homo sapiens)) (UniProt P30530); test: flow cytometry, A431 cells pre-incubated with Gas6 (competitor); mean (s.d.)
[4] = biological target: human AXL (full length, on cells) (human (Homo sapiens)) (UniProt P30530); test: flow cytometry, A431 cells pre-incubated with 10 µg/mL Gas6 (competitor); mean (s.d.)
[5] = biological target: human AXL (full length, on cells) (human (Homo sapiens)) (UniProt P30530); test: flow cytometry, A431 cells pre-incubated with Gas6 (competitor); mean (s.d.); less accurate due to low binding
[6] = biological target: human AXL (full length, on cells) (human (Homo sapiens)) (UniProt P30530); test: flow cytometry, A431 cells pre-incubated with 10 µg/mL Gas6 (competitor); mean (s.d.); less accurate due to low binding

human AXL (full length, on cells) (human (Homo sapiens)), sequence (P30530 26-894 limits assumed): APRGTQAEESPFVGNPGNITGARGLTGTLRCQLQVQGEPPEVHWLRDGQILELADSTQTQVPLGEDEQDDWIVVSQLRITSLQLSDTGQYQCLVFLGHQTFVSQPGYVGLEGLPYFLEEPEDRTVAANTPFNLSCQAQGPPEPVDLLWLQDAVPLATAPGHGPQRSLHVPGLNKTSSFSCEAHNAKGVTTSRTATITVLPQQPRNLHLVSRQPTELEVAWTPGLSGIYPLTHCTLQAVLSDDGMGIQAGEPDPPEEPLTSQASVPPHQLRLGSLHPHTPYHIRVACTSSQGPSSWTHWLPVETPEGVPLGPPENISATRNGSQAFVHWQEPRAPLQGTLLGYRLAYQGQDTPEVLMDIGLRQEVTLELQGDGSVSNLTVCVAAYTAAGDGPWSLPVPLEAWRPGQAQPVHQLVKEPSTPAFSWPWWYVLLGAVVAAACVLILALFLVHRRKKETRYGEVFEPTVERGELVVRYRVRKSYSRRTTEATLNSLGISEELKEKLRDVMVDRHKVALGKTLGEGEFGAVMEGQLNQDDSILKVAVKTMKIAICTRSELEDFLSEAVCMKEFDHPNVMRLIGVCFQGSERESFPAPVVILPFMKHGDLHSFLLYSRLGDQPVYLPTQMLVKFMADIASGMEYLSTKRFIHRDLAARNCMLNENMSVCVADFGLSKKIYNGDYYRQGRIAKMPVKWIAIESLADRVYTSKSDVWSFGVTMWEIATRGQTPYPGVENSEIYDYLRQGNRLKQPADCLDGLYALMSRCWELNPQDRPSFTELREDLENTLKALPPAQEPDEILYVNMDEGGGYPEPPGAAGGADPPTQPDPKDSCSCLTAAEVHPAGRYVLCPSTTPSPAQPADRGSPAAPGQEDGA

EC50 [1]: 0.09 µg/mL
fold change of EC50 with Gas6 pre-incubation against without Gas6 [2]: 21 fold
maximal binding in presence of Gas6 (% of binding without Gas6) [2]: 19%
maximal binding in presence of Gas6 (% of binding in absence of Gas6) [3]: 41%
maximal binding in presence of Gas6 (% of binding in absence of Gas6) [4]: 41%
EC50 [5]: 1.9 µg/mL
EC50 [6]: 1.9 µg/mL
B1: YW327.6S2 (antibody, from another filing, V domains shown)
VH: EVQLVESGGGLVQPGGSLRLSCAASGFSLSGSWIHWVRQAPGKGLEWVGWINPYRGYAYYADSVKGRFTISADTSKNTAYLQMNSLRAEDTAVYYCAREYSGWGGSSVGYAMDYWGQGTLVTVSS
VL: DIQMTQSPSSLSASVGDRVTITCRASQDVSTAVAWYQQKPGKAPKLLIYSASFLYSGVPSRFSGSGSGTDFTLTISSLQPEDFATYYCQQSYTTPPTFGQGTKVEIK
